The results in this text go back to the supplement of paper PMC9170038.

This data set has as its system MS2 coat protein. The data set can be described thus: apparent KD of MS2 coat protein; designed switch direction (-1 OFF switch, 1 ON switch): -1; higher = weaker reporter binding. In outline:
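Three titration conditions were used: no input, 200 uM small-molecule ligand, and an oligonucleotide input. In each, SNAP-549-labelled MS2 coat protein was raised from 0.7 or 1.5 nM, doubling, to 3 µM over designed RNA switches transcribed on Illumina chips by stalled E. coli RNA polymerase. Curve fits of normalised cluster fluorescence gave values whose per-design median over clusters is the apparent KD.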

The mark [1] stands for this setting: input ligand: microRNA oligo, concentration not stated.
[2] abbreviates: Eterna round: R95, input ligand: microRNA oligo, concentration not stated.
Setting [3] is: Eterna round: R95, input ligand: FMN 200 uM.
Setting [4] is: Eterna round: R95, input ligand: none.

For the sequence “UUUCGGCAUGUAGGAUAUGGGUCCGAUUAGGAUUUAGAAGGACAUGAGGAUCACCCAUGUGCAUUUAAUUGGUCAUUACCGUUU [EXclNG1-LROPPY09] (Eterna round: R96, puzzle: Exclusion NG 1)”, the “apparent KD of MS2 coat protein” value was 0.0867 µM (input ligand: FMN 200 uM), 0.0478 µM under setting [1] and 0.066 µM (input ligand: none).

As for “GGUGAAGCAGGAUAUGUAUCGAUAUACAUGAGGAUCACCCAUGUCAUGUAGAAACCGCAUAUAGAAGGGCUUCACC [Exclusion 5 (FMN-MS2 slide v.6)] (Eterna round: R97, puzzle: Exclusion 5)”, the “apparent KD of MS2 coat protein” value (input ligand: FMN 200 uM) was found to be 0.163 µM and the “apparent KD of MS2 coat protein” value (input ligand: none) was found to be 0.0474 µM.

In the case of “CCUCUUGGGCAAGGAUAUCCUGCGCGGUUCCGGCUCGUGUCUGUCACAUGAGGAUCACCCAUGUGGGAGAAGGUGCCUGCGGUC [Design 79] (Eterna round: R96, puzzle: Exclusion NG 2)”, the “apparent KD of MS2 coat protein” value (input ligand: FMN 200 uM) worked out at 0.0163 µM, the “apparent KD of MS2 coat protein” value under setting [1] amounted to 0.0118 µM and the “apparent KD of MS2 coat protein” value (input ligand: none) came to 0.0165 µM.

As to “CAUGAGGUAGGAUAUACGAUAAUAUAGGGUAGAUAUAUAACACAUGAGGAUCACCCAUGUAGAAGGACCAGUAG [Mat - Exclusion 2 - Mod of my Tesla design - D67] (puzzle: Exclusion 2)”, the “apparent KD of MS2 coat protein” value under setting [2] is 0.0298 µM.

Take “UUCACAUGGACAUGAGAUCACAUGAGGAUCACCCAUGUGAAUAACAAGCUUUUUGUUCGUCUUAUGUCCAAUAAUAG [Stov1/14-D3] (Eterna round: R97, puzzle: Sensor, turn-off variant 1)”: the “apparent KD of MS2 coat protein” value came to 0.014 µM (input ligand: FMN 200 uM) and 0.0141 µM (input ligand: none).

As to “CAUACACAUGAGGAUCACCCAUGUGAGGAUAUGCGUACGUUGUCAGUAGGCGACGUGCGCAGAAGGCGCGUGUU [Mat - Mod of JL D90] (puzzle: Exclusion 1)”, the “apparent KD of MS2 coat protein” value under setting [2] was found to be 0.0463 µM.

Take “GGAAAACAUGAGGAUCACCCAUGUAAGGAUAUGCAAAAGGAUAUAGAAGGAAAAAUAAGCAGAAGGUACAAAGG [salish99-ex1_r3_097] (puzzle: Exclusion 1)”: the “apparent KD of MS2 coat protein” value by setting is: under setting [3], 0.0509 µM; under setting [2], 0.0425 µM; under setting [4], 0.0435 µM.

“CGCCGAGUGUUAGGAUAUCACAAGCAUAAGCGGUGAGAAGGAACAUGAGGAUCACCCAUGUACUGUCCCAUCGGGACAGGUUUC [Ribeon] (Eterna round: R96, puzzle: Exclusion NG 1)”: the “apparent KD of MS2 coat protein” value runs as follows: (input ligand: FMN 200 uM) 0.17 µM; under setting [1], 0.054 µM; (input ligand: none) 0.0708 µM.

In the case of “GUCAGCUCGUGAGGAUAUGUAUAUACAUGAGGAUCACCCAUGUUAGAUCUGCUUCGGCUGUAUAUACAGAAGGCACGAGCUGAC [ENG2/16-A1] (Eterna round: R96, puzzle: Exclusion NG 2)”, the “apparent KD of MS2 coat protein” value is, setting by setting: (input ligand: FMN 200 uM) 0.504 µM; under setting [1], 0.382 µM; (input ligand: none) 0.308 µM.

On to “AGGAGCAGAGGGAGAUCCAACAUGAGGAUCACCCAUGUCUCAUAAGCUUUUUGCUCAUCUUAUUGUACCUUGGUGCA [Mat - Sensor v3 - turn-off var 1 - JL Mod - D27] (puzzle: Sensor v3, turn-off variant 1)”, for which the “apparent KD of MS2 coat protein” value was 0.0292 µM under setting [3], 0.0125 µM under setting [2] and 0.0223 µM under setting [4].

On to “AGUACUAACACGAAAGUGUUAGUACAAUAAGCUUGUGAAACAUGAGGAUCACCCAUGUCCUCGUAAGCUCGUCUUAU [salish99_TOv2_r3_048] (puzzle: Sensor v3, turn-off variant 2)”, for which the “apparent KD of MS2 coat protein” value under setting [3] was determined as 0.04 µM, the “apparent KD of MS2 coat protein” value under setting [2] came to 0.62 µM and the “apparent KD of MS2 coat protein” value under setting [4] stood at 0.0377 µM.

As to “CAGAAGCAAGGAUAUACAACGGGCCACAGAGCGAGAGGGCAACAUGAGGAUCACCCAUGUAGAAGGUGCGUAAC [Timaina] (puzzle: Exclusion 2)”, the “apparent KD of MS2 coat protein” value under setting [3] turned out to be 0.0475 µM, the “apparent KD of MS2 coat protein” value under setting [2] worked out at 0.0974 µM and the “apparent KD of MS2 coat protein” value under setting [4] worked out at 0.0744 µM.

Regarding “AAGGACUGAGGAUAUGCGCGGGCAAGAUCCUCAAUCCCAAAACAUGAGGAUCACCCAUGUAGAAGGCAGAAAUA [Tereenrion] (puzzle: Exclusion 2)”, the “apparent KD of MS2 coat protein” value under setting [2] is 0.0234 µM.

Take “CCACGACAUGAGGAUCACCCAUGUGAGGAUAUGGCCUGAAAAGCGUGAGCAGUUUCUAUCAGAAGGCGCGUGGG [salish99_ex1_r4_063] (Eterna round: R97, puzzle: Exclusion 1)”: the “apparent KD of MS2 coat protein” value runs as follows: (input ligand: FMN 200 uM) 0.137 µM; (input ligand: none) 0.0494 µM.

Consider “UAUUAGCAAGUGAGAUCCCACAUGAGGAUCACCCAUGUGCUCGUCUUAUAACGUACUGUGAGGAAACUCACGGUACG [Sensor-V1 #83] (Eterna round: R97, puzzle: Sensor, turn-off variant 1)”, for which the “apparent KD of MS2 coat protein” value runs as follows: (input ligand: FMN 200 uM) 0.0476 µM; (input ligand: none) 0.0512 µM.

On to “ACAAGCUUUUUGUUCGUCUUAUACACUCCUAAUAAGACAACAUGAGGAUCACCCAUGUAACAAAGACGAACUCAUGU [Sesor Array 8 - Jieux - Sensor v3, turn-off variant 2] (puzzle: Sensor v3, turn-off variant 2)”, for which the “apparent KD of MS2 coat protein” value reads like this: under setting [3], 0.0224 µM; under setting [2], 0.257 µM; under setting [4], 0.0199 µM.

With “ACUUAUAGAGGAUAUACAGUUAAUUACAUGAGGAUCACCCAUGUUCUUCAAUGUAUAUAAGUAGAAGGCUAAGAAA [Mat - Exclusion 5 - Eli Mod - D5] (Eterna round: R97, puzzle: Exclusion 5)”, the “apparent KD of MS2 coat protein” value (input ligand: FMN 200 uM) is 0.058 µM and the “apparent KD of MS2 coat protein” value (input ligand: none) stood at 0.0135 µM.

As to “AAGUACCGUCACGAUAGUGAUGGUACAACAAGCAAAUGUACAUGAGGAUCACCCAUGUCCUCUUUUGCUCGUCUUGU [Sensor 3 - 100] (puzzle: Sensor v3, turn-off variant 2)”, the “apparent KD of MS2 coat protein” value is, setting by setting: under setting [3], 0.155 µM; under setting [2], 0.0302 µM.

Turning to “GGUGGACAUGAGGAUCACCCAUGUGAGGAUAUCGGCUGGCUAGUGGCUGACGGCUGCUCGAGAAGGCGCAUUGU [Exclusion 1 V86] (puzzle: Exclusion 1)”, the “apparent KD of MS2 coat protein” value under setting [2] was determined as 0.0547 µM.

As to “AGUAGUAGUGUCCGAUCCUACAUGAGGAUCACCCAUGUAGCUAGACGUGCACGCGAUGCUCGUCAGACUACCAGAUG [salish99_TOv1_r3_046] (puzzle: Sensor v3, turn-off variant 1)”, the “apparent KD of MS2 coat protein” value by setting is: under setting [3], 0.0837 µM; under setting [2], 0.0887 µM; under setting [4], 0.129 µM.

Turning to “GAAUACAAGUAAAGAUCCUACAUGAGGAUCACCCAUGUGCUCGUCUUGUAAAGUACUAUCACGAAAGUGAUAGUACA [Mat - Sensor v3 - turn-off var 1 - Eli Mod - D88] (puzzle: Sensor v3, turn-off variant 1)”, the “apparent KD of MS2 coat protein” value is, setting by setting: under setting [3], 0.0538 µM; under setting [2], 0.159 µM; under setting [4], 0.0471 µM.

Take “CUUAGUAUCUAGGAUAUCUAGUACAUAGUAUCUAGAGAAGGAGAUACAUGAGGAUCACCCAUGUUCUGUGUUCU [Exclusion 6 - 1:b] (puzzle: Exclusion 6)”: under setting [2], the “apparent KD of MS2 coat protein” value amounted to 0.0222 µM.

“UUAACAUUCGUCAGGAUAUUUGCUCGGUGUACGAGAGAGAAGGGACAUGAGGAUCACCCAUGUGACUUCAGCAA [Eternabot (Original) Solution 2] (Eterna round: R97, puzzle: Brourd's mod of Exclusion 4)”: the “apparent KD of MS2 coat protein” value runs as follows: (input ligand: FMN 200 uM) 0.0196 µM; (input ligand: none) 0.0151 µM.

As to “AAUAAGUGAGGAUAUACUAAAAUAUGAAUAAAAUAAAUAAAACAUGAGGAUCACCCAUGUAGAAGGCACAAUAA [JMF's Not so obvious solution 5] (puzzle: Exclusion 2)”, the “apparent KD of MS2 coat protein” value was 0.0226 µM under setting [3], 0.0239 µM under setting [2] and 0.0222 µM under setting [4].

Take “UUGCAGUCGUCAGGAUAUAGUAUUACGGCCUUUCAUUUCUUCAUACAUGAGGAUCACCCAUGUCGCUAGAAGGGAUUAUCGAUU [salish99_ExNG2_r04_106] (Eterna round: R96, puzzle: Exclusion NG 2)”: the “apparent KD of MS2 coat protein” value runs as follows: (input ligand: FMN 200 uM) 0.016 µM; under setting [1], 0.0171 µM; (input ligand: none) 0.023 µM.

With “CCCUCACAUGAGGAUCACCCAUGUCAGGAUAUUCGAACGGUGUGUUUUUGGCCAGUUGGAAGAAGGGACAUAAA [Riinesbe] (Eterna round: R96, puzzle: Exclusion 1)”, the “apparent KD of MS2 coat protein” value stood at 0.278 µM (input ligand: FMN 200 uM), 0.029 µM under setting [1] and 0.0322 µM (input ligand: none).

“UACAUGAGGAUCACCCAUGUUUUGUCGUGUAUGGUACCCAUCUAGGAUAUCGUGUUAUUGGACCACGAGAAGGAGAGUAUCAAU [Excl-NG3-LRO01] (Eterna round: R96, puzzle: Exclusion NG 3)”: the “apparent KD of MS2 coat protein” value (input ligand: FMN 200 uM) worked out at 0.0192 µM, the “apparent KD of MS2 coat protein” value under setting [1] came to 0.0181 µM and the “apparent KD of MS2 coat protein” value (input ligand: none) stood at 0.0241 µM.

As for “GCUAGAGCAGGAUAUUUAGAUCCUCACAUGAGGAUCACCCAUGUGGCCGAAAGGCUAAGGAGAGAAGGGCUCUAGC [Omei Ex5 E23] (Eterna round: R97, puzzle: Exclusion 5)”, the “apparent KD of MS2 coat protein” value (input ligand: FMN 200 uM) was found to be 1.58 µM and the “apparent KD of MS2 coat protein” value (input ligand: none) came to 0.933 µM.

As to “AGCUAAAUAGGAUAUGCCCGGGAUAACAUGAGGAUCACCCAUGUGACCGAUUCAUGUCCUGCAGAAGGGUUUGGGA [Mod of ViennaUCT 6 - Jieux - Exclusion 5] (Eterna round: R97, puzzle: Exclusion 5)”, the “apparent KD of MS2 coat protein” value worked out at 0.0143 µM (input ligand: FMN 200 uM) and 0.0135 µM (input ligand: none).

For the sequence “GGAAACCUACCGCGACAUGAGGAUCACCCAUGUGAUUGGUUUUAGGAUAUCUGGAGAAUCCAGACAGAGAAGGAGGGCCGUCGC [Eternabot solution 38] (Eterna round: R96, puzzle: Exclusion NG 3)”, the “apparent KD of MS2 coat protein” value is 0.0775 µM (input ligand: FMN 200 uM), 0.0285 µM under setting [1] and 0.0451 µM (input ligand: none).
